The RNAGym collection of RNA variant scans (doi:10.1073/pnas.2313332121)

B1: TPR t1 (parent)
chain: GACCAAUCUGCCCUCAGAGCUCGAGAACAUCUUCGGAUGCAGAGGAGGCAGGCUUCGGUGGCGCGAUAGCGCCAACGUCCUCAACCUCCAAUGCAUCCCACCACAUGAUGAUGCCUGAAGAGCCUUGGUUUUUUG

Variants of: B1
Assay: polymerase ribozyme fitness, log enrichment relative to wild type (log ratio); higher = more active; in vitro selection for triplet polymerase activity
In short: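 Genotype fitness is the logarithm of its enrichment divided by wild-type enrichment, using inverse-variance-weighted averages of replicates. That logarithm is base 2. Enrichment was measured by Illumina sequencing of input and output libraries from one triplicate in vitro selection round, with frozen incubation at −7 °C, on PCR-built, transcribed mutant libraries of each subunit of a heterodimeric triplet polymerase ribozyme, retaining genotypes with ≥10 input reads and ≥1 read per output.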

Point of comparison: G93C G113C, “polymerase ribozyme fitness (log ratio)” value -3.08. Against it:
- G93U G120U — higher, -1.4
- A100U U116C G128U U130A — lower, -5.48
- G93A C97U G127C — higher, -2.77
- C98U G110C U131A — lower, -5.64
- G93C G120A — higher, 1.58
- C99A C123U — lower, -6.27
- U92A C98U — lower, -4.66
- C99U G110A — lower, -5.27
- G93U G110U — higher, -2.46
- U92A G113U — lower, -3.75
- C97U U129C — higher, -1.16
- A95G A121U — higher, 2.11
- A91U A111G — higher, -1.26
- G93A C115A U131A — higher, -0.388
- U92A C115G C123G — lower, -5.89
- A100U U132C — higher, -0.866
- A100U U132A — higher, -0.727
- C94A U129G — higher, -1.07
- C94A C101G C123G — higher, -1.92
- C97U C101A G122C C123A U125A — higher, -1.66
- C99G C124U — lower, -6.43
- C94U C98U G120U G127U — higher, -0.759
- A95C C123G — higher, -0.428
- C98U C99A A118U U130C — lower, -5.55
- C94G C124G — higher, 1.09
- A91U G110C A121U — lower, -5.81
- A91C U96A A103U — lower, -7.59
- U92C C102U — lower, -4.04
- C98A C124A — higher, -2.34
- G93U U96G U106A G127C — lower, -3.43
- C97G C115G G120C — lower, -5.54
- A91U C104U — higher, -1.47
- A91U C104A — lower, -4.59
- C98A C101U G110U G120U C123G U130G — lower, -5.9
- C94G C114G G120C — lower, -4.95
- C94U C123A — higher, 0.36
- A95C G120U U129A — higher, -1.76
- A91G C101U — higher, -1.08
- A95U A111U G120U — lower, -5.49
- C101A A111C — higher, -0.305
- C94U C102G — lower, -6.09
- C101A C115A G120C — higher, -0.291
- C94G U131A — higher, -1.9
- U96A C102A — lower, -3.43
- C97G A111C — lower, -4.02
- C94A G127U — higher, -1.5
- C98U G113U — lower, -3.5
- G93U U130A U131C — higher, -1.29
- C94U G128C — lower, -4.18
- G93C G128C — higher, -2.25
- A95G U126C — higher, -0.892
- G93C C102U — within 0.2 log units, -3.11
- U96C G110A — higher, -0.613
- U96C G110U — higher, -0.753
- C98U G120A — higher, -0.67
- C97G G120A A121U — lower, -3.45
- U92C G120U G127A — higher, -0.833
- U96G C123G — higher, 1.1
- U92A C94U — lower, -3.3
- U96C A105U — within 0.2 log units, -3.06
- A95C C123G U132A — higher, -0.459
- C94U C115U A121G — higher, -2.09
- C94A A121U — higher, 1.37
- A91G G120U — higher, 0.174
- U96A G110A — higher, -2.45
- A95U U106C — higher, -1.56
- U96C — higher, 0.0976
- U96A — higher, -0.895
- U96G — higher, -0.532
- A91C U112A — higher, -0.47
- G93C A111U — lower, -5.12
- G93C C101U C104A — higher, -1.95
- A90U U92C U96C — higher, -2.06
- C98U U129C — higher, -1.46
- A91C C104A — lower, -3.58
- G93U A111G G122A — higher, -1.2
- C101A C102A A119U U130A — lower, -5.43
- C98A A111U G122A C124G — lower, -6.05
- A95U U116G — higher, -2
- U96G U125A — higher, -0.674
- A100C U130C — higher, -0.362
- G93U U112G G120C C123U — higher, -2.5
- U92G A121C C123G — higher, -0.349
- C94A U112G — higher, -1.48
- G93A C98A — lower, -5.11
- C97G U129A — lower, -5.28
- C98G G110A — lower, -4.98
- U96A G113A — higher, -1.86
- A90U C97U U125A G127C U130G — lower, -3.85
- G93A U132C — higher, -0.827
- A91C C104U C123U — higher, 0.398
- A95U C102U C104A G110C G128U — lower, -5.5
- U92G G120A A121C — higher, -2.53
- C94A C104A C123U — higher, -1.42
- A95U C102U U125G — lower, -4.42
- C97A G120U — lower, -4.3
- C97A G120A — lower, -3.9
- C97A G120C — lower, -4.1
- C94U G117C — lower, -3.83
- A91G C94U U109A U112A — lower, -6.42
- G93U G113C U125A — lower, -3.4
- A95C A119U — higher, -1.28
- C98A U109A — lower, -5.81
- U92A U133A — higher, -2.62
- C99U U133G — higher, -2.59
- A90U C104A G113C — lower, -3.66
- C94A A105C C114A A118U — higher, -1.05
- C94G A118U — higher, -0.748
- U96C C123A — higher, 1.12
- C98U U126G G128U — higher, -2.42
- A100U G117U — lower, -3.66
- C101A C114G — lower, -3.4
- U96A G117A G120A U130C — lower, -3.72
- A91C G113U — lower, -3.8
- A100C U106A — higher, -0.525
- G93A U129A — higher, -1.36
- C97U C123A — higher, 0.00246
- C99U G120U — lower, -3.34
- G93A A118G G135U — higher, -1.11
- C97G U112A — lower, -3.48
- U96A U129C — higher, -1.7
- U96C U133A — higher, -0.456
- U92A C102G G113C — lower, -6.86
- G93U U109C — lower, -5.62
- C99U C114A — lower, -4.84
- C98U G117U G120C U132C — within 0.2 log units, -3.23
- A95G G117A U133A — higher, -1.23
- C94G C102U — within 0.2 log units, -3.04
- U92C G128C U130A — lower, -3.52
- C98G G135U — lower, -6.54
- A95C G113U — lower, -3.39
- U96C A118U U129C — higher, -0.593
- C97U U116G G135U — lower, -3.49
- A90U C98G C114G G117C C123U U126C — lower, -5.73
- C99A G110U — lower, -4.34
- C99A G110A — lower, -5.17
- C99U — within 0.2 log units, -3.02
- C99A — lower, -6.24
- C99G — lower, -7.03
- G93C C98U A121U — higher, 1.01
- G93U A100U — higher, -1.72
- C101A C115A — higher, -1.02
- U96A C104U — higher, -0.116
- U96A C104A — lower, -3.3
- G93C G127C — higher, -1.82
- A90U G93A G110A U131G — lower, -5.42
- G93A A105C — within 0.2 log units, -3.13
- U92A U106A C114A C123A — lower, -5.83
- A91G G113C G120A — lower, -3.31
- C97G G113C G122U — lower, -5.4
- C98A U112A — within 0.2 log units, -3.24
- G93U C97U — higher, -0.996
- A100U G113U C124U — lower, -3.92
- A91U C115U U130A — higher, -2.33
- A95U C114G — within 0.2 log units, -2.97
- G93A C101U C123U — higher, 0.532
- G93C A95C — higher, -0.938
- U92C A121C — higher, 1.53
- A95C U125A U126G — higher, -1.74
- C94U U130G — higher, -1.07
- U92C G113A — higher, -1.23
- A95G G135U — higher, -0.746
- U92G A118C — lower, -4
- A90U C101A — lower, -3.3
- U92C U112C — higher, 0.33
- U92C C115U — higher, -2.72
